Laboratory results taken from patent US20190203227A1 (WILLIAM MARSH RICE UNIVERSITY, published 2019).

B1: PhyB917-His6 (other)
chain: MGASGVSGVGGSGGGRGGGRGGEEEPSSSHTPNNRRGGEQAQSSGTKSLRPRSNTESMSKAIQQYTVDARLHAVFEQSGESGKSFDYSQSLKTTTYGSSVPEQQITAYLSRIQRGGYIQPFGCMIAVDESSFRIIGYSENAREMLGIMPQSVPTLEKPEILAMGTDVRSLFTSSSSILLERAFVAREITLLNPVWIHSKNTGKPFYAILHRIDVGVVIDLEPARTEDPALSIAGAVQSQKLAVRAISQLQALPGGDIKLLCDTVVESVRDLTGYDRVMVYKFHEDEHGEVVAESKRDDLEPYIGLHYPATDIPQASRFLFKQNRVRMIVDCNATPVLVVQDDRLTQSMCLVGSTLRAPHGCHSQYMANMGSIASLAMAVIINGNEDDGSNVASGRSSMRLWGLVVCHHTSSRCIPFPLRYACEFLMQAFGLQLNMELQLALQMSEKRVLRTQTLLCDMLLRDSPAGIVTQSPSIMDLVKCDGAAFLYHGKYYPLGVAPSEVQIKDVVEWLLANHADSTGLSTDSLGDAGYPGAAALGDAVCGMAVAYITKRDFLFWFRSHTAKEIKWGGAKHHPEDKDDGQRMHPRSSFQAFLEVVKSRSQPWETAEMDAIHSLQLILRDSFKESEAAMNSKVVDGVVQPCRDMAGEQGIDELGAVAREMVRLIETATVPIFAVDAGGCINGWNAKIAELTGLSVEEAMGKSLVSDLIYKENEATVNKLLSRALRGDEEKNVEVKLKTFSPELQGKAVFVVVNACSSKDYLNNIVGVCFVGQDVTSQKIVMDKFINIQGDYKAIVHSPNPLIPPIFAADENTCCLEWNMAMEKLTGWSRSEVIGKMIVGEVFGSCCMLKGPDALTKFMIVLHNAIGGQDTDKFPFPFFDRNGKFVQALLTANKRVSLEGKVIGAFCFLQIPSPELQQALAVGGSHHHHHH
modifications: phycocyanobilin (PCB) chromophore bound after incubation with 5 uM PCB (residue not stated)
notes: Light-switchable phytochrome B fragment, immobilised on a Ni2+ column
B2: PhyB651-His6 (other)
chain: MVSGVGGSGGGRGGGRGGEEEPSSSHTPNNRRGGEQAQSSGTKSLRPRSNTESMSKAIQQYTVDARLHAVFEQSGESGKSFDYSQSLKTTTYGSSVPEQQITAYLSRIQRGGYIQPFGCMIAVDESSFRIIGYSENAREMLGIMPQSVPTLEKPEILAMGTDVRSLFTSSSSILLERAFVAREITLLNPVWIHSKNTGKPFYAILHRIDVGVVIDLEPARTEDPALSIAGAVQSQKLAVRAISQLQALPGGDIKLLCDTVVESVRDLTGYDRVMVYKFHEDEHGEVVAESKRDDLEPYIGLHYPATDIPQASRFLFKQNRVRMIVDCNATPVLVVQDDRLTQSMCLVGSTLRAPHGCHSQYMANMGSIASLAMAVIINGNEDDGSNVASGRSSMRLWGLVVCHHTSSRCIPFPLRYACEFLMQAFGLQLNMELQLALQMSEKRVLRTQTLLCDMLLRDSPAGIVTQSPSIMDLVKCDGAAFLYHGKYYPLGVAPSEVQIKDVVEWLLANHADSTGLSTDSLGDAGYPGAAALGDAVCGMAVAYITKRDFLFWFRSHTAKEIKWGGAKHHPEDKDDGQRMHPRSSFQAFLEVVKSRSQPWETAEMDAIHSLQLILRDSFKESEAAMNSKVVDGVVQPCRDMAGEQGIDELGAHHHHHH
modifications: phycocyanobilin (PCB) chromophore bound after incubation with 5 uM PCB (residue not stated)

Molecular target: T1, wild-type recombinant adeno-associated virus serotype 2 (adeno-associated virus serotype 2, UniProt P03135 1-735; P03135 139-735; P03135 203-735)
T1 construct: Assembled virus capsid; Control virus without PIF6; also called wtAAV2; wtAAV
Experiment: Ni2+ column capture with immobilised PhyB, qPCR of viral genomes, far-red (730 nm) light

Binder | binding result
B1 | no binding
B2 | no binding
